# Test results: patent publication US9976134B2, “Thermolysin variants” (Danisco US Inc., priority 2007, dated 2018)
# Assay: Stability assay in 25% TIDE 2X detergent with DTPA (residual Abz-AGLA-Nba protease activity)
# Format: physicochemical
# Settings: 60 min at 32°C; variant residual AGLA activity divided by wild-type residual activity
# Experimental: The stability of thermolysin and variants thereof was measured after incubation under defined conditions in the presence of 25% TIDE® 2× detergent. The initial and residual activity was determined.
# MTPs were obtained from Costar (type 9017) and from Greiner (black plate, type 655076). Test Method Unstressed Conditions:
# First, 20 μl thermolysin containing culture supernatant was diluted with 180 μl MES assay buffer. Then, 20 μl diluted supernatant was diluted further with 180 μl MES assay buffer. Subsequently 10 μl of this dilution was transferred into 190 μl AGLA-substrate solution in a pre-warmed plate (Greiner 655076) at 25° C. Any air bubbles present were blown away and the plate was measured according to the AGLA protease assay protocol described below.
# First, 20 μl of culture supernatant was diluted with 180 μl 27.5% TIDE®+detergent solution and placed in the iEMS shaker. The plate covered with a plate seal was incubated for a total of 60 minutes at 32° C. at 900 rpm. In addition, 20 μl of culture supernatant was diluted with 180 μl 27.5% TIDE®−solution and placed in the iEMS shaker. This plate covered with a plate seal was incubated for a total of 180 minutes at 50° C. at 900 rpm.
# Subsequently after the respective incubations, 20 μl of either of these solutions were diluted with 180 μl MES assay buffer and 10 μl of this dilution were diluted with 190 μl AGLA-substrate solution in a pre-warmed plate (Greiner 655076) at 25° C.
# Fluorescence measurements were taken at excitation of 350 nm and emission of 420 nm. The spectrofluorometer software calculated the reaction rates (=slope) of the increase in fluorescence for each well to a linearly regressed line of (milli-) RFU/min. The ratio of the residual and initial AGLA activity was used to express the 25% TIDE® 2× stability as follows: Percentage of residual activity=[slope of stressed]*100/[slope of unstressed]
# For each sample (thermolysin and variants thereof) the performance index was calculated by dividing the residual activity of the variant by the residual activity of thermolysin. The performance index compared the stability of the variant and the standard thermolysin enzyme (e.g., wild type or parental enzyme), determined under the same conditions.
# In these experiments, the liberation of Abz-AG by protease cleavage of Abz-AGLA-Nba was monitored by fluorescence spectrometry (Ex. 350/Em. 420). The rate of appearance of Abz-AG was a measure of proteolytic activity.
# The Abz-AGLA-Nba assay solution was prepared by adding 1 ml of the Abz-AGLA-Nba stock to 19 ml MES substrate buffer and mixed well for at least 2 minutes. Subsequently the thermolysin or variants thereof containing culture supernatants were diluted with MES assay buffer to a concentration of 1-6 μg protein per ml.
# The assay was performed by adding 10 μl of diluted protease solution to each well, followed by the addition of 190 μl Abz-AGLA-Nba assay solution that was pre-equilibrated for at least 15 minutes at 25° C. The solutions were vigorously mixed, and the liberation of Abz-AG by protease cleavage of Abz-AGLA-Nba was monitored by fluorescence spectrometry at 25° C. in kinetic mode with excitation set at 350 nm and emission set at 420 nm. The rate of appearance of Abz-AG was a measure of proteolytic activity in the samples. The protease activity was expressed as RFU (relative fluorescence units·min^−1).
# As described in Example 1, the stability of thermolysin variants was measured by determining the AGLA activity before and after incubation in the presence of TIDE® 2× heavy duty liquid (HDL) detergent at an elevated temperature. The tables contain the relative stability values compared to wild-type thermolysin, which is the quotient of the variant residual activity divided by the wild-type residual activity. A value greater than one indicates higher stability in the presence of detergent. […]
row,Molecule,"PI (relative stability), 25% TIDE 2X with DTPA"
1,"Q273A: single-substitution thermolysin variant (SEQ ID NO:3 numbering) (protein, listed as Geobacillus caldoproteolyticus) ITGTSTVGVGRGVLGDQKNINTTYSTYYYLQDNTRGNGIFTYDAKYRTTLPGSLWADADNQFFASYDAPAVDAHYYAGVTYDYYKNVHNRLSYDGNNAAIRSSVHYSQGYNNAFWNGSQMVYGDGDGQTFIPLSGGIDVVAHELTHAVTDYTAGLIYQNESGAINEAISDIFGTLVEFYANKNPDWEIGEDVYTPGISGDSLRSMSDPAKYGDPDHYSKRYTGTQDNGGVHINSGIINKAAYLISQGGTHYGVSVVGIGRDKLGKIFYRALTAYLTPTSNFSQLRAAAVQSATDLYGSTSQEVASVKQAFDAVGVK",1.03
2,"Q273W: single-substitution thermolysin variant (SEQ ID NO:3 numbering) (protein, listed as Geobacillus caldoproteolyticus) ITGTSTVGVGRGVLGDQKNINTTYSTYYYLQDNTRGNGIFTYDAKYRTTLPGSLWADADNQFFASYDAPAVDAHYYAGVTYDYYKNVHNRLSYDGNNAAIRSSVHYSQGYNNAFWNGSQMVYGDGDGQTFIPLSGGIDVVAHELTHAVTDYTAGLIYQNESGAINEAISDIFGTLVEFYANKNPDWEIGEDVYTPGISGDSLRSMSDPAKYGDPDHYSKRYTGTQDNGGVHINSGIINKAAYLISQGGTHYGVSVVGIGRDKLGKIFYRALTWYLTPTSNFSQLRAAAVQSATDLYGSTSQEVASVKQAFDAVGVK",1.05
3,"T278Y: single-substitution thermolysin variant (SEQ ID NO:3 numbering) (protein, listed as Geobacillus caldoproteolyticus) ITGTSTVGVGRGVLGDQKNINTTYSTYYYLQDNTRGNGIFTYDAKYRTTLPGSLWADADNQFFASYDAPAVDAHYYAGVTYDYYKNVHNRLSYDGNNAAIRSSVHYSQGYNNAFWNGSQMVYGDGDGQTFIPLSGGIDVVAHELTHAVTDYTAGLIYQNESGAINEAISDIFGTLVEFYANKNPDWEIGEDVYTPGISGDSLRSMSDPAKYGDPDHYSKRYTGTQDNGGVHINSGIINKAAYLISQGGTHYGVSVVGIGRDKLGKIFYRALTQYLTPYSNFSQLRAAAVQSATDLYGSTSQEVASVKQAFDAVGVK",1.05
4,"Q273T: single-substitution thermolysin variant (SEQ ID NO:3 numbering) (protein, listed as Geobacillus caldoproteolyticus) ITGTSTVGVGRGVLGDQKNINTTYSTYYYLQDNTRGNGIFTYDAKYRTTLPGSLWADADNQFFASYDAPAVDAHYYAGVTYDYYKNVHNRLSYDGNNAAIRSSVHYSQGYNNAFWNGSQMVYGDGDGQTFIPLSGGIDVVAHELTHAVTDYTAGLIYQNESGAINEAISDIFGTLVEFYANKNPDWEIGEDVYTPGISGDSLRSMSDPAKYGDPDHYSKRYTGTQDNGGVHINSGIINKAAYLISQGGTHYGVSVVGIGRDKLGKIFYRALTTYLTPTSNFSQLRAAAVQSATDLYGSTSQEVASVKQAFDAVGVK",1.08
5,"T278S: single-substitution thermolysin variant (SEQ ID NO:3 numbering) (protein, listed as Geobacillus caldoproteolyticus) ITGTSTVGVGRGVLGDQKNINTTYSTYYYLQDNTRGNGIFTYDAKYRTTLPGSLWADADNQFFASYDAPAVDAHYYAGVTYDYYKNVHNRLSYDGNNAAIRSSVHYSQGYNNAFWNGSQMVYGDGDGQTFIPLSGGIDVVAHELTHAVTDYTAGLIYQNESGAINEAISDIFGTLVEFYANKNPDWEIGEDVYTPGISGDSLRSMSDPAKYGDPDHYSKRYTGTQDNGGVHINSGIINKAAYLISQGGTHYGVSVVGIGRDKLGKIFYRALTQYLTPSSNFSQLRAAAVQSATDLYGSTSQEVASVKQAFDAVGVK",1.08
6,"Q273N: single-substitution thermolysin variant (SEQ ID NO:3 numbering) (protein, listed as Geobacillus caldoproteolyticus) ITGTSTVGVGRGVLGDQKNINTTYSTYYYLQDNTRGNGIFTYDAKYRTTLPGSLWADADNQFFASYDAPAVDAHYYAGVTYDYYKNVHNRLSYDGNNAAIRSSVHYSQGYNNAFWNGSQMVYGDGDGQTFIPLSGGIDVVAHELTHAVTDYTAGLIYQNESGAINEAISDIFGTLVEFYANKNPDWEIGEDVYTPGISGDSLRSMSDPAKYGDPDHYSKRYTGTQDNGGVHINSGIINKAAYLISQGGTHYGVSVVGIGRDKLGKIFYRALTNYLTPTSNFSQLRAAAVQSATDLYGSTSQEVASVKQAFDAVGVK",1.25
7,"T278C: single-substitution thermolysin variant (SEQ ID NO:3 numbering) (protein, listed as Geobacillus caldoproteolyticus) ITGTSTVGVGRGVLGDQKNINTTYSTYYYLQDNTRGNGIFTYDAKYRTTLPGSLWADADNQFFASYDAPAVDAHYYAGVTYDYYKNVHNRLSYDGNNAAIRSSVHYSQGYNNAFWNGSQMVYGDGDGQTFIPLSGGIDVVAHELTHAVTDYTAGLIYQNESGAINEAISDIFGTLVEFYANKNPDWEIGEDVYTPGISGDSLRSMSDPAKYGDPDHYSKRYTGTQDNGGVHINSGIINKAAYLISQGGTHYGVSVVGIGRDKLGKIFYRALTQYLTPCSNFSQLRAAAVQSATDLYGSTSQEVASVKQAFDAVGVK",1.05
8,"T278N: single-substitution thermolysin variant (SEQ ID NO:3 numbering) (protein, listed as Geobacillus caldoproteolyticus) ITGTSTVGVGRGVLGDQKNINTTYSTYYYLQDNTRGNGIFTYDAKYRTTLPGSLWADADNQFFASYDAPAVDAHYYAGVTYDYYKNVHNRLSYDGNNAAIRSSVHYSQGYNNAFWNGSQMVYGDGDGQTFIPLSGGIDVVAHELTHAVTDYTAGLIYQNESGAINEAISDIFGTLVEFYANKNPDWEIGEDVYTPGISGDSLRSMSDPAKYGDPDHYSKRYTGTQDNGGVHINSGIINKAAYLISQGGTHYGVSVVGIGRDKLGKIFYRALTQYLTPNSNFSQLRAAAVQSATDLYGSTSQEVASVKQAFDAVGVK",1.07
9,"N280E: single-substitution thermolysin variant (SEQ ID NO:3 numbering) (protein, listed as Geobacillus caldoproteolyticus) ITGTSTVGVGRGVLGDQKNINTTYSTYYYLQDNTRGNGIFTYDAKYRTTLPGSLWADADNQFFASYDAPAVDAHYYAGVTYDYYKNVHNRLSYDGNNAAIRSSVHYSQGYNNAFWNGSQMVYGDGDGQTFIPLSGGIDVVAHELTHAVTDYTAGLIYQNESGAINEAISDIFGTLVEFYANKNPDWEIGEDVYTPGISGDSLRSMSDPAKYGDPDHYSKRYTGTQDNGGVHINSGIINKAAYLISQGGTHYGVSVVGIGRDKLGKIFYRALTQYLTPTSEFSQLRAAAVQSATDLYGSTSQEVASVKQAFDAVGVK",1.13
10,"T278H: single-substitution thermolysin variant (SEQ ID NO:3 numbering) (protein, listed as Geobacillus caldoproteolyticus) ITGTSTVGVGRGVLGDQKNINTTYSTYYYLQDNTRGNGIFTYDAKYRTTLPGSLWADADNQFFASYDAPAVDAHYYAGVTYDYYKNVHNRLSYDGNNAAIRSSVHYSQGYNNAFWNGSQMVYGDGDGQTFIPLSGGIDVVAHELTHAVTDYTAGLIYQNESGAINEAISDIFGTLVEFYANKNPDWEIGEDVYTPGISGDSLRSMSDPAKYGDPDHYSKRYTGTQDNGGVHINSGIINKAAYLISQGGTHYGVSVVGIGRDKLGKIFYRALTQYLTPHSNFSQLRAAAVQSATDLYGSTSQEVASVKQAFDAVGVK",1.07
